From US20230322924A1
Changes are numbered by the printed parent chain. Numbers in names are those of the source. One block for each binder: values may come before it.

Legend:
[1] = target: human CD3 on human T cells (human) (UniProt P07766); test: Kd = IC50/(1+[T]/KdT) from competition with AF488 SP-34 on human pan T cells
[2] = target: human CD3 on human T cells (human) (UniProt P07766); test: competition with AF488 SP-34 tracer on human pan T cells, flow cytometry
[3] = target: recombinant human CD3ε (1-27) peptide with a C-terminal Tencon25 fusion (human) (UniProt P07766); test: ProteOn SPR, mAb captured by anti-human Fc, antigen as analyte
Sequence of recombinant human CD3ε (1-27) peptide with a C-terminal Tencon25 fusion (human) (P07766 22-48): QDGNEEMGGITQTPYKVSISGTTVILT

Sequence of human CD3 on human T cells (human) (P07766 23-207 limits assumed): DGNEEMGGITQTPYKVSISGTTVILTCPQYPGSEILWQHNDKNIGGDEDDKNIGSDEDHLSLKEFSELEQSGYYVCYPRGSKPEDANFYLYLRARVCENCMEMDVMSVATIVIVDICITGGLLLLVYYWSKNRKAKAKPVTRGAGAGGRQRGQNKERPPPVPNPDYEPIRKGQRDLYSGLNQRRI

Kd [1]: 103 nM | IC50 [2]: 409 nM
B1: monovalent CD3B376 construct (bispecific antibody, part only; not given: unnamed target arm, not shown: another chain or arm of the molecule; small tags and cut ends)
heavy: QVQLQQSGPRLVRPSQTLSLTCAISGDSVFNNNAAWSWIRQSPSRGLEWLGRTYYRSKWLYDYAVSVKSRITVNPDTSRNQFTLQLNSVTPEDTALYYCARGYSSSFDYWGQGTLVTVSSASTKGPSVFPLAPCSRSTSESTAALGCLVKDYFPEPVTVSWNSGALTSGVHTFPAVLQSSGLYSLSSVVTVPSSSLGTKTYTCNVDHKPSNTKVDKRVESKYGPPCPPCPAPEAAGGPSVFLFPPKPKDTLMISRTPEVTCVVVDVSQEDPEVQFNWYVDGVEVHNAKTKPREEQFNSTYRVVSVLTVLHQDWLNGKEYKCKVSNKGLPSSIEKTISKAKGQPREPQVYTLPPSQEEMTKNQVSLTCLVKGFYPSDIAVEWESNGQPENNYKTTPPVLDSDGSFLLYSKLTVDKSRWQEGNVFSCSVMHEALHNHYTQKSLSLSLGK
light: QSALTQPASVSGSPGQSITISCTGTSSNIGTYKFVSWYQQHPDKAPKVLLYEVSKRPSGVSSRFSGSKSGNTASLTISGLQAEDQADYHCVSYAGSGTLLFGGGTKLTVLGQPKAAPSVTLFPPSSEELQANKATLVCLISDFYPGAVTVAWKADSSPVKAGVETTTPSKQSNNKYAASSYLSLTPEQWKSHRSYSCQVTHEGSTVEKTVAPTECS

Kd [3]: 32.9 nM | koff [3]: 0.00202 s⁻¹ | kon [3]: 61300 M⁻¹ s⁻¹
B4: BLW-2E6 variant CD3H219/CD3L137 (antibody, V domains shown)
VH: QVQLQQSGPRLVRPSQTLSLTCAISGDSVFNNNAAWSWIRQSPSRGLEWLGRTYYRSKWLYDYAVSVKSRITVNPDTSRNQFTLQLNSVTPEDTALYYCARGYSSSFDYWGQGTLVTVSS
VL: QSALTQPASVSGSPGQSITISCTGTSSNIGTYKFVSWYQQHPGKAPKVMIYEVSKRPSGVSNRFSGSKSGNTASLTISGLQAEDEADYYCCSYAGSGTLLFGGGTKLTVL

Kd [3]: 23.3 nM | koff [3]: 0.00237 s⁻¹ | kon [3]: 102000 M⁻¹ s⁻¹
B6: CD3B376 (antibody, human IgG4 S228P, lambda, F234A L235A, V domains shown)
VH: B4 VH
VL: QSALTQPASVSGSPGQSITISCTGTSSNIGTYKFVSWYQQHPDKAPKVLLYEVSKRPSGVSSRFSGSKSGNTASLTISGLQAEDQADYHCVSYAGSGTLLFGGGTKLTVLG

The remaining lines, values behind:

B2: monovalent CD3B450 construct (bispecific antibody, part only; not given: unnamed target arm, not shown: another chain or arm of the molecule; small tags and cut ends)
heavy: B1 heavy with R10G, R13K, V73I, R79K, T83S, L96V
light: B1 light with D43G, L49M, L50I, S62N, Q85E, H89Y
Kd [1]: 254 nM | IC50 [2]: 1010 nM

B3: CD3B312 (antibody, V domains shown)
VH: B4 VH
VL: B4 VL with G43D, M49L, I50L, N62S, E85Q, Y89H
Kd [3]: 20.6 nM | koff [3]: 0.00187 s⁻¹ | kon [3]: 90800 M⁻¹ s⁻¹

B5: BLW-2E6 variant CD3H219/CD3L160 (LC C91L) (antibody, V domains shown)
VH: B4 VH
VL: B4 VL with G43D, M49L, I50L, N62S, E85Q, Y89H, C91L
Kd [3]: 41.1 nM | koff [3]: 0.00405 s⁻¹ | kon [3]: 98400 M⁻¹ s⁻¹
